± gives the standard deviation of the averaged measurements.

In the data set the test system is VchCAST RNA-guided transposition machinery (E. coli BL21(DE3) host, lacZ target). The data set is described as follows: relative integration efficiency (T-RL orientation) vs wild-type transposon end (log2 (normalized fold change)); transposon end mutated: right end (5 bp flank + 75 bp right end); higher = more efficient transposition. The procedure:
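Pooled, barcoded VchCAST (Tn6677) mini-transposon donor libraries; each variable transposon-end sequence sits in a fixed pDonor mini-transposon context (10-bp barcode and cargo not included). Left- or right-end libraries were co-transformed with pEffector (TniQ-Cascade, TnsABC, lacZ crRNA, T7, 0.1 mM IPTG) into E. coli BL21(DE3) and grown 18 h at 37 C. T-LR and T-RL junction amplicons were sequenced; output/input barcode fold change was normalised to the mean of four wild-type barcodes and log2-transformed. Two biological replicates; zero-count/undetected variants carry floor values (-10 / -15), censored here. Barcode uncoupling by PCR recombination adds noise.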
With “ACATTTGTTGATACAACCATAAGTTGATATTTTCACCCATAAATTGATAATTATCACACCCATAAATTGATAATTACTCTGATCATAGTCAGACCAACATTGCTACGACCCGTATTCGCACCGACAC”, the “relative integration efficiency (log2)” value is 2.44 ± 0.29.

As to “ACATTTGTTGATACAACCATAAAATGATAATTACACCCATAAATTGATAATTATCACACCCATAAATTGATATTGCCTCTTCTTTGCTCACGCATCTAGTCGGTCCACGTTTGGTTCGCACCGACAC”, the “relative integration efficiency (log2)” value is -0.231 ± 0.37.

“ACATTTGTTGATACAACCATAAAATGCTAATTACACCCATAAATTGCTAATTATCACACCCATAAATTGCTATTGCCTCTGATCATAGTCAGACCAACATTGCTACGACCCGTATTCGCACCGACAC”: the “relative integration efficiency (log2)” value was -1.55 ± 0.13.

As to “ACATTTGTTGATACAACCATAAAATGATAATTACAACCATAAGTTGATATTTTTCACACCCATAAATTGATAATTACTCTGATCATAGTCAGACCAACATTGCTACGACCCGTATTCGCACCGACAC”, the “relative integration efficiency (log2)” value was -0.168 ± 0.11.

On to “ACATTTGTTGATACAACCATAAAATGATAATTACAACCATATATTGATATCTCTCACAACCATAAAATGATAATTACTCTGATCATAGTCAGACCAACATTGCTACGACCCGTATTCGCACCGACAC”, for which the “relative integration efficiency (log2)” value is -0.257 ± 0.18.

With “ACATTTGTTGATACAACCATAACCGTCGCCGGCACAAACGCCCGGTCGCCGGCGACACAAACGCCCGGTCGCGGTAAGAGGATCATAGTCAGACCAACATTGCTACGACCCGTATTCGCACCGACAC”, the “relative integration efficiency (log2)” value was -7.77 ± 0.98.

Regarding “ACATTTGTTGATACAACCATAAAGTGATATTTACAACCATAAGTTGATATTTTTCACACCCATAAATTGATATTGCCTCTGATCATAGTCAGACCAACATTGCTACGACCCGTATTCGCACCGACAC”, the “relative integration efficiency (log2)” value is -0.0454 ± 0.018.

With “ACATTTGTCGATACAACCATAAAATGATAATTACACCCATAAATGGATCATTATCACACCCAATTTAACTATAACGCTCTGATCATAGTCAGACCAACATTGCTACGACCCGTATTCGCACCGACAC”, the “relative integration efficiency (log2)” value was -1.61 ± 0.16.

Regarding “ACATTTGTTGATACACCCATAAATTGATATTGCCACCCATAAATTGATAATTATCACAACCATAAAGTGATATTTACTCTGATCATAGTCAGACCAACATTGCTACGACCCGTATTCGCACCGACAC”, the “relative integration efficiency (log2)” value was -0.75 ± 0.089.

Regarding “ACATTTGTTGATACAACCATAAAATGATAAATACACCCATAAATTGATAATTGTGACACCGAATTTAACTATAACGCTCTGATCATAGTCAGACCAACATTGCTACGACCCGTATTCGCACCGACAC”, the “relative integration efficiency (log2)” value is -0.896 ± 0.3.

As for “ACATTTGTTGATACAACCATAAAATGATAATTCACAAACGCCCGGTCGCCGGCGACACAAACGCCCGGTCGCGGTAAGAGGATCATAGTCAGACCAACATTGCTACGACCCGTATTCGCACCGACAC”, the “relative integration efficiency (log2)” value is -1.9 ± 0.14.

Consider “ACATTTGTTGATACAACCATAAAATGATAATTAATAATTATTTATAACACCCATAAATTGATAATTATCAACAAACGCCCGGTCGCGGTACTCTGATCATAGTCAGACCAACATTGCTACGACCCGT”, for which the “relative integration efficiency (log2)” value was -2.63 ± 0.52.

“ACATTTGTTGATACAACCATAAAATGATAATTACACCCATAAATTGATAATTATCACACCCATAAATTGATCGGTAAGAGGATCATAGTCAGACCAACATTGCTACGACCCGTATTCGCACCGACAC”: the “relative integration efficiency (log2)” value was -0.421 ± 0.075.

Consider “ACATTTGTTGATACAACCATAAAATGATAATTAATAATTATTTATAATCACCCATAAATTGATAATTATCACACCCATAAATTGATATTGCCTCTGATCATAGTCAGACCAACATTGCTACGACCCG”, for which the “relative integration efficiency (log2)” value was -2.92 ± 0.3.

For “ACATTTGTTGATACAACCATATTTAGATAATTACACCCATAAATTGATAATTATCACACCCATAAATTGATATTGCCTCTGATCATAGTCAGACCAACATTGCTACGACCCGTATTCGCACCGACAC”, the “relative integration efficiency (log2)” value was -0.585 ± 0.14.

Regarding “ACATTTGTTGATACAACCATAAAATGATAATTACCCCCATAAATTGATAATTGTGACACCGAATTTAACTATAACGCTCTGATCATAGTCAGACCAACATTGCTACGACCCGTATTCGCACCGACAC”, the “relative integration efficiency (log2)” value is -1.79 ± 0.38.

In the case of “ACATTTGTTGATACAACCATAAAATGATAATTACACCCATAAATTGATATAATTCACACCCATAAATTGATATTGCCTCTGATCATAGTCAGACCAACATTGCTACGACCCGTATTCGCACCGACAC”, the “relative integration efficiency (log2)” value was -0.233 ± 0.14.

Consider “ACATTTGTTGATACAACCATAAAATGATAATTACACCCATAAATTGATAATTATCACACCCATAAATTGATATTGCCTCTGATCATAGTCCAACCATAAAATGATAATTAAGACCAAGCACCGACAC”, for which the “relative integration efficiency (log2)” value was -0.312 ± 0.44.

“ACATTTGTTGATACCACCATCAAATGATAATTCCACCCCTAAATTGATAATTATCACACCCAATTTAACTATAACGCTCTGATCATAGTCAGACCAACATTGCTACGACCCGTATTCGCACCGACAC”: the “relative integration efficiency (log2)” value is -5.24 ± 0.34.

On to “ACATTTGTTGATACAACCATAAAATGATAATTAACAAACGCCCGGTCGCCGGCGACACAAACGCCCGGTCGCGGTAAGAGGATCATAGTCAGACCAACATTGCTACGACCCGTATTCGCACCGACAC”, for which the “relative integration efficiency (log2)” value is -2.3 ± 0.29.

As to “ACATTTGTTGATACAACCATAAAATGATAATTACACCCATAAATTGATAATTATCACACCCATAAATTGATATTGCCTCTGATCATTTGCATAAAAATTCATCTAGTCAGACCAACAGCACCGACAC”, the “relative integration efficiency (log2)” value is -0.15 ± 0.36.

As to “ACATTTGTTGATACAACCATAAAATGATAATTACACCCATAAATTGATAATTATCACACAACGAAATTGATATTGCCTCTGATCATAGTCAGACCAACATTGCTACGACCCGTATTCGCACCGACAC”, the “relative integration efficiency (log2)” value is -0.936 ± 0.18.

For the sequence “ACATTTGTTGATACAACCATAAAGTGATATTTACACCCATAAATTGATAATTATCACACCCATAAATTGATATTGCCTCTGATCATAGTCAGACCAACATTGCTACGACCCGTATTCGCACCGACAC”, the “relative integration efficiency (log2)” value was -0.207 ± 0.081.

For the sequence “ACATTTGTTGATACAACCATAAAATGATATAATCACCCATAAATTGATAATTATCACACCCATAAATTGATATTGCCTCTGATCATAGTCAGACCAACATTGCTACGACCCGTATTCGCACCGACAC”, the “relative integration efficiency (log2)” value is -0.575 ± 0.093.

As to “ACATTTGTTGATACAACCATAAAAAGATAATTACACCCATAAATTGATAATGATGACACCGAATTTAACTATAACGCTCTGATCATAGTCAGACCAACATTGCTACGACCCGTATTCGCACCGACAC”, the “relative integration efficiency (log2)” value was -1.33 ± 0.2.
